In patent publication US6458927B1, “Polypeptide with appetite regulating activity” (Novo Nordisk A/S, priority 1997, dated 2002):

Test system: Mice
Experiment: Test method for measuring appetite suppression in mice (milk consumption after ICV injection)
Format: in vivo
Settings: for % Feeding Suppression: food deprived, milk consumption over 10 minutes, 30 min after injection, percent reduction relative to control mean
Experimental: Mice were deprived of their normal feed for two days and given free access to a solution of nutritionally complete infant formula milk (Complan®) for the first day, after which food deprivation was complete for the last day before testing. After one day of food deprivation, mice were injected intra-cerebroventricularly (ICV) in the lateral ventricle with 10 microliters of a solution containing the test substance. Thirty minutes after injection, mice were individually placed in a 15×15×15 cm test box with a stainless steel grid floor and a glass drinking tube which projected into the box. The drinking tube was connected to a reservoir containing the formula milk solution, and the interior of the drinking tube contained an electrode enabling the detection of drinking contacts with the solution by measuring the flow of a weak (unnoticeable) electric current through mice by means of an electronic apparatus connected to the drinking tube electrode and the stainless steel grid floor. Consumption of the milk solution was measured over a 10 minutes period by electronically recording the total amount of contact with the milk solution during the test session. The degree of appetite suppression produced by a given test substance was determined by statistical comparison of the duration of milk consumption by control (vehicle treated) mice with that of mice treated with a test substance. The degree of appetite suppression in a treated group of mice was expressed as percent reduction of consumption relative to the mean of the control group's response.

B1: Ala-Leu-Asp-Ile-Tyr-Ser-Ala-Val-Asp-Asp-Ala-Ser-His-Glu-Lys-Glu-Leu-Ile- Glu-Ala-Leu-Gln-Glu-Val-Leu-Lys-Lys-Leu-Lys-Ser-Lys-Arg-Ile-Pro-Ile-Tyr- … (protein)
chain: ALDIYSAVDDASHEKELIEALQEVLKKLKSKRIPIYEKKYGQVPMCDAGEQCAVRKGARIGKLCDCPRGTSCNSFLLKCL
notes: recombinant rat CART fragment 10-89 from FXa digest of thioredoxin-CART fusion (E. coli)
% Feeding Suppression (ICV dose 1 microgram): 41% | % Feeding Suppression (ICV dose 2 micrograms): 70% | % Feeding Suppression (ICV dose 5 micrograms): 71% | % Feeding Suppression (ICV dose 10 micrograms): 59% | % Feeding Suppression (ICV dose 20 micrograms): 78% | suppression of milk consumption (statistical significance, in words) (intra-cerebroventricular injection in phosphate buffered saline, over the dose range tested for the substance): statistically significant suppression of milk consumption
